Target: GST-HP1α (full-length human heterochromatin protein 1 α with N-terminal GST) (human) (UniProt P45973)
Test: pull-down; GST-HP1 anchored on GSH-Sepharose (80 pmol), 1.2 μg native oligo-nucleosomes from HeLa; absence of MgCl2; 50 mM NaCl, 20 mM Tris-HCl pH 7.4, room temperature 30 min; H3K9me3 and H4 detected by western blot

Chain of UniProt P45973 (P45973 whole entry): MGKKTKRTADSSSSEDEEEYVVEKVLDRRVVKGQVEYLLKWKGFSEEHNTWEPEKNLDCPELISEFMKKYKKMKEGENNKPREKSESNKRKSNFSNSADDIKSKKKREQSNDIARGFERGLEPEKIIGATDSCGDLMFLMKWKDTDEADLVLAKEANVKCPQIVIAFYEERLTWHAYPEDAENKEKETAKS

percent of input bound: 18 % of input
Substance: native oligo-nucleosomes prepared from HeLa cell nuclei (H3K9me3-nucleosomes detected) (complex)

— publication PMC4666388
